System: LL-37 (native) (human)
Assay: EMSA
Conditions: EMSA with 5' 6-FAM PCR products, as previously published; buffer, salt, pH and temperature not in the material

Row | Substance | Kd [µM]
1 | mucA fragment | 12.8
2 | lecB fragment | 12.8
3 | algT (algU) fragment | 12.8
